Laboratory results taken from patent publication US20150098945A1 (Daiichi Sankyo, published 2015).
Read-outs that look alike come from different tables or passages of the source.

Assays:
[1] = molecular target: T1, N-terminal FLAG-tagged cynomolgus monkey ROBO4, cynoROBO4-1 (pCI-FLAG-cynoROBO4-1) (cynomolgus monkey, UniProt Q8WZ75 28-1007 (human entry)); assay: flow cytometry (FC500), HEK293 cells transfected with pCI-FLAG-cynoROBO4-1, antibody at 10 µg/mL, FITC goat anti-human IgG Fc; control histogram IgG (human IgG)
T1 chain: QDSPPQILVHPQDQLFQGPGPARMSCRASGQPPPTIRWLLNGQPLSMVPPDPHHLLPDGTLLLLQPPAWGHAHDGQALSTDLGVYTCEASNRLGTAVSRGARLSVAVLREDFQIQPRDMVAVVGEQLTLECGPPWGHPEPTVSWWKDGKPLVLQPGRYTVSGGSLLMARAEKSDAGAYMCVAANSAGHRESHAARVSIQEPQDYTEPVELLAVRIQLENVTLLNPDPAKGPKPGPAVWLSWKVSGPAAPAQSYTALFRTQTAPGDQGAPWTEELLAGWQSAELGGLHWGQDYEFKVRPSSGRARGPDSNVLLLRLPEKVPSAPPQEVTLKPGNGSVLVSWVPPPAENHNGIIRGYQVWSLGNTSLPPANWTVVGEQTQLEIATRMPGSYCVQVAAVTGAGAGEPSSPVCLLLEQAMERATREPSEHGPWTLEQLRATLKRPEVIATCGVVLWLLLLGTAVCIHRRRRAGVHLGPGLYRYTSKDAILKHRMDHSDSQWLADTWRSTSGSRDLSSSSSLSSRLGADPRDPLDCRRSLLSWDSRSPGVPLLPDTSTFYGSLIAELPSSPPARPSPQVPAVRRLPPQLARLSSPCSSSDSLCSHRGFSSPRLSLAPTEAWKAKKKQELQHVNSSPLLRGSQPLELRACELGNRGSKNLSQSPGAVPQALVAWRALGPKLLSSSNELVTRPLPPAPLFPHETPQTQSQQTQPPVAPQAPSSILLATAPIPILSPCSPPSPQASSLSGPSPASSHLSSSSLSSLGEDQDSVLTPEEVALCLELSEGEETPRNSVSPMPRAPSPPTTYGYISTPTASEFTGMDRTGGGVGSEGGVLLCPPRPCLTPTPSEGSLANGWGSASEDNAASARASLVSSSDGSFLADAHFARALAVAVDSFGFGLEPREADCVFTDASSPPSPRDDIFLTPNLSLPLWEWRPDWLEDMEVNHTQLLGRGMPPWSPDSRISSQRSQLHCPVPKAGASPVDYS

[2] = molecular target: T1, N-terminal FLAG-tagged cynomolgus …; assay: as above

Binder | binding result [1] | binding result [2]
humanized MAb1 antibody H-1143 (antibody, human IgG2, kappa, V domains shown, Human IgG2 / kappa constant regions; also called hMAb1-H2-type heavy chain + hMAb1-L2-type light chain) VH: EVQLVESGGGLVQPGGSLRLSCAASGFTFSTYAMSWVRQAPGKGLEWVATISQGGTYTYYPDSVKGRFTISRDNAKNTLYLQMNSLRAEDTAVYYCARLIYYDYLDYWGQGTLVTVSS VL: DIVMTQSPLSLPVTLGEPASISCRSSQSLENENKNLYLNWYLQKPGQSPQLLIYRVSNRFSGVPDRFSGSGSGTDFTLKISRVEAEDVGVYYCLQVTHVPWTFGPGTKVDIKR | binds | –
humanized MAb1 antibody H-2140 (antibody, human IgG2, kappa, V domains shown, Human IgG2 / kappa constant regions; also called hMAb1-H4-type heavy chain + hMAb1-L1-type light chain) VH: EVQLVESGGGLVQPGGSLRLSCAASGFTFSTYAMSWVRQAPGKRLEWVATISQGGTYTYYPDSVKGRFTISRDNAKNTLYLQMNSLRAEDTAVYYCARLIYYDYLDYWGQGTLVTVSS VL: DIVMTQSPLSLPVTLGEPASISCRSSQSLENSNGNTYLNWYLQKPGQSPQLLIYRVSNRFSGVPDRFSGSGSGTDFTLKISRVEAEDVGVYYCLQVTHVPWTFGPGTKVDIKR | – | binds
